From the nanobody polyreactivity screen of Harvey et al. (2022) come the findings set out here.

This series is described as follows: yeast display, Sf9 membrane polyspecificity reagent, FACS + sequencing; frameworks hold sequencing errors. The gist of the method: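 Nanobodies came from a synthetic yeast display library in Saccharomyces cerevisiae BJ5465, induced with galactose for 36–48 hours and stained for 1 hour at 4 °C with 10% biotinylated, detergent-solubilized Sf9 membrane reagent. Cells were enriched on streptavidin microbeads and then FACS-sorted, with low and high (top ~1%) gates set on anti-HA fluorescence for expression and streptavidin fluorescence for reagent binding. Each polyreactivity label reflects the gate a clone came from. Genes were amplified by colony PCR, sequenced by MiSeq 2 × 250 and filtered by CDR length.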
On to “QVQLVESGGGLVQAGGSLRLSCADSGSTFRANAMGWYRQAPGKERELVAAISQSGGITYYADSVKGRFTISRDNAKNSVYLQMNSLKPEDTAVYYCAAEYWFYYVDSFYYWGQGTQVTVSS”, for which the “polyreactivity (PSR sort gate)” value is listed as “high polyreactivity”. Consider “QVQLVESGGGLVQAGGSLRLSCADSGSTFVSYAMGWYRQAPGKERELVAVAISWSGGNTYYADSVKGRFTISRDNAKNTVYLQMNSLKPEDTAVYYCAAYGTTGVYRGPGYDYWGQGTQVTVSS”, for which the “polyreactivity (PSR sort gate)” value is on record as “low polyreactivity”. For “QVQLVESGGGLVQAGGSLRLSCADSGSTFYGNVMGWYRQAPGKERELVAAITRGGTTNYADSVKGRFTISRDNAKNTVYLQMNSLKPEDTAVYYCAKASYWVQASNDYWGQGTQVTVSS” the value was “low polyreactivity”; for “QVQLVESGGGLVQAGGSLRLSCADSGSTFYTNAMGWYRQAPGKERELVAAINRSGGRTYYADSVKGRFTISRDNAKNTVYLQMNSLKPEDPAVYYCAARYPVRFSTDTARDYYWGQGTQVTVSS”, “low polyreactivity”.

Turning to “QVQLVESGGGLVQAGGSLRLSCADSGTIFALYAMGWYRQAPGKEREFVAAIRRGTSTKYADSVKGRFTISRDNAKNTVYLQMNSLKPEDTAVYYCNARYYYSSSISRWYDYWGQGTQVTVSS”, the “polyreactivity (PSR sort gate)” value is given as “high polyreactivity”. The same measure for “QVQLVESGGGLVQAGGSLRLSCADSGYIYPYYAMRWYRQAPGKERELVATITSRGGSTYYADSVKRRFTISRDIAKNTVYLQMNSLKPEDTAVYYCAIEYRYYRRRYDYCGQGTQVTVSS”: “high polyreactivity”. For “QVQLVESGGGLVQAGGSLRLSCADTGRTFSRNSMGWYIQAPGKERELVATITRGTITNYADSVKGRFTISRDNAMNTVYLQINSRKPEDTAVYYCNARTLFFPARNRCELSDYWGQGTQVTVSS” the value was “low polyreactivity”; for “QVQLVESGGGLVQAGGSLRLSCADYGFIMLYYALVCYRQAPGKERELVAAISWTGGRTYYADSVKGRFTISRDNAKNTVYLQMNSLKPEDTAVYFCNTVKLFGRKYGYWGQGTQVTVSS”, “low polyreactivity”. The same measure for “QVQLVESGGGLVQAGGSLRLSCAGSGFTFIRYAMGWYRQAPGKERELVATITRRTGSTYYADSVKGRFTISRDNAKNTVYLQMYSLKPEDTAVYDCAGELYPSWSHTVFHGYNYWGQGTQVTVSS”: “high polyreactivity”; for “QVQLVESGGGLVQAGGSLRLSCAGSGIIFSRYAMGWYRQAPGKERELVAAISSSGGTTYYADSVKGRFTISRDNAKNTVYLQMNSQKPEDTAVYYCYAPAFYKYKSFYAHSGYDYWGQGTQVTVSS”: “high polyreactivity”; for “QVQLVESGGGLVQAGGSLRLSCAGSGRIFARNAMGWYRQAPGKARELVAGITWSGSSTYYADSVKGRFTISRDNAKNTVYLQMNRLKPEDTAVYYCAVDYYVGSLRIHHDYWGQGTQVTVSS”: “low polyreactivity”.

With “QVQLVESGGGLVQAGGSLRLSCAGSGRIFLDKAMGWYRQAPGKERELVAAINGSGGSTYYADSVKGRFTISRDNAKNTVYLQMNSLKPKIPRSITATKRYIQSLWGFDYWGQGTQVTVSS”, the “polyreactivity (PSR sort gate)” value is given as “low polyreactivity”. The same measure for “QVQLVESGGGLVQAGGSLRLSCAGSGRTFSTYAMGSDRQAPGKERELVAAITRRGGSTYYADSVKGRFTISRDNAKNTVYLQMNSLKPEDTAVYYCARENPGDSYYDYWGQGTQVTVSS”: “low polyreactivity”; for “QVQLVESGGGLVQAGGSLRLSCAGSGSIFGLYAMGWYRQEPGKERELVAAINQSGGSTSYADSVKGRFTISRDNAKNTVYFQMNSLKPEDTAVYYCNRVRLNTEGFDYWGQGTQVTVSS”: “low polyreactivity”. The same measure for “QVQLVESGGGLVQAGGSLRLSCAPSGFIFGLYVMGWYRQAPGKERELVAAITTSVGSTYYADSVKGRFTISRDNAKNTVYLQMNSLKPEDTAVYYCAKTSGTIDYDYWGQGTQVTVSS”: “low polyreactivity”; for “QVQLVESGGGLVQAGGSLRLSCAPSGFIFTPYTMGGYRQAPGKERELVAAITDGSSTYYADSVKGRFTISRDNAKNTVYVQMNSLKPEDTAVYYCNADGKPPYISWLYDYWGQGTQVTVST”: “low polyreactivity”; for “QVQLVESGGGLVQAGGSLRLSCAPSGFIFVKYVMGWYRQAPGKERELVATITGSTGGTYYADSVKGRFTISRDNAKNTVYLQMNSLKPEDTAVYYCNKDYYYNPGNVASGYDYWGQGTQVTVSS”: “low polyreactivity”. The same measure for “QVQLVESGGGLVQAGGSLRLSCAPSGFIFYANDMGWYRQAPGKERELVARITNSGGSTYYADSVKGRFTISRDNAKNTVYLQMNSLKPEDTAVYYCAAWRRFNYSRRYYYWGQGTQVTLSS”: “high polyreactivity”; for “QVQLVESGGGLVQAGGSLRLSCAPSGFTFSPYTMGWYRQAPGKETELVATIRYDGTSTYYADSVKGRFTISRDNAKNTVYLQMNSLKPEDTAVYYCNADGSAQDIAELDYWGQGTQVTVSS”: “low polyreactivity”; for “QVQLVESGGGLVQAGGSLRLSCAPSGFTFYTYAMGWYRQAPGKERELVAVISRSGGRTNYADSVKGRFTISRDNAKNTVYLQMNSLKPEDTAVYYCNRYDRQRSWSVGYDYWGQGTQVTVSS”: “high polyreactivity”. For “QVQLVESGGGLVQAGGSLRLSCAPSGGTIAPYAMGWYRQASGKESELDATISNSGTSTNYADSVKGRFTISRDNAKNTVYLQMNSLKPEDTAVYYCAKRYHQYRWRGWLWGFDYWGQGTQVTVLS”, the “polyreactivity (PSR sort gate)” value is recorded as “high polyreactivity”. For “QVQLVESGGGLVQAGGSLRLSCAPSGIIFPTYAMGWYRQAPGKERELVAAIRWNGGSTYYADSVKGRFTISRDNAKNTVFLQMTILKPEDTAVYYCAAGYRGSYKYYYWGQGTQVTVSS” the value was “high polyreactivity”; for “QVQLVESGGGLVQAGGSLRLSCAPSGIILYRYAMGWYRQAPGKERELVAAITYSGGSTYYADSVKGRFTISRDNAKNSVYLQMNSLNPEDTAVYYCAAESRAGRYYVSKPSNYWGQGTQVTVSS”, “high polyreactivity”. The same measure for “QVQLVESGGGLVQAGGSLRLSCAPSGIIYRYYGMVWYRQAPGKERELVAVITNSDGSTYYADSVKGRFTISRDNAKNTVYLQQYSLKPEDTAVYYCAARGITSRQRYYWGQGTQVTVSS”: “low polyreactivity”.

In the case of “QVQLVESGGGLVQAGGSLRLSCAPSGITFLANTMGGYRQAPGKERELVATITSSGGSTYYADSVKGRFTISRDNAKNTVYLQMNSLKPEDTAGYYCADSDLRYRGNYVYLPSEYWGQGSQVTVSS”, the “polyreactivity (PSR sort gate)” value is listed as “low polyreactivity”. For “QVQLVESGGGLVQAGGSLRLSCAPSGITFRHYALGGYRQAPGKERELVAAITSRGGSTYYADSVKGRFTISRDNAKNTVYLQMNSLKPEDTAVYYCNKRLYYQRWPAAAREYWGQGTQVTVSS” the value was “high polyreactivity”; for “QVQLVESGGGLVQAGGSLRLSCAPSGITFWVYVMGWYRQAPGKEREFVADISSGAGTTYYADSVKGRFTISRDNAKNTVYLQMNSLKPEDTAVYYCAARRWWPQWYDYWGQGTQVTVSS”, “high polyreactivity”. The same measure for “QVQLVESGGGLVQAGGSLRLSCAPSGITFYGNDMGWYRQAPGKERELVAAISSGGITNYADSVKGRFTISRDNAKNSVYLQMNSLKPEDTAVYYCAKDLLYYHITPDGYTWYLPEDSWGQGTQVTVSS”: “low polyreactivity”; for “QVQLVESGGGLVQAGGSLRLSCAPSGRIFAGYAMGWYRQAHGKERELVAAISWRGTSTYYADSVKGRFTISRDNAKNTVYLQMNSLKPEDTAVYYCAARYTKGMYYWGQGTQVTVSS”: “high polyreactivity”; for “QVQLVESGGGLVQAGGSLRLSCAPSGRIFGAYGMGWYRQAPGKERELVAAISNGGRTSYADSVKGRFTISRDNAKNTVYLQLNSVKPEDTAVYYCAAVYWPWFGAYDYWGHGTQVTVSS”: “high polyreactivity”. For “QVQLVESGGGLVQAGGSLRLSCAPSGRIFRYNAMGWYRQAPGKERELVAAITSGGSTNYADSVKGRFTISRDNAKNTVYLQMNRLKPEDTAVYYCAVTGYRPYAYRRRYPYDYWGQGTQVTVSS” the value was “high polyreactivity”. Turning to “QVQLVESGGGLVQAGGSLRLSCAPSGRNFTYYDMGRYRQAPGKEREFVAVISDNDSSTYADSVKGRFTISPDNAKNTVYLQMNRLKPEDTAVYYCNAYRQYRSWRYDYWGQGTQVTVSS”, the “polyreactivity (PSR sort gate)” value is on record as “high polyreactivity”. The same measure for “QVQLVESGGGLVQAGGSLRLSCAPSGRTFGYNAMGWYRQAPGKESELVAGISSSDASTYYADSVKGRFTISRDNAKNTVYLQMNSLKPEDTAVYYCAATFGFFYYQYDYWGQGTQVTVSS”: “low polyreactivity”; for “QVQLVESGGGLVQAGGSLRLSCAPSGRTFGYNGRGWSRQEPGKESELVAAINSGGNTNYADSVKGRFTISRDYAKNTVYLQMNSLKPEDTAVYYCAKYGTLFEPVPNEYDYWGQGTQVTVSS”: “low polyreactivity”; for “QVQLVESGGGLVQAGGSLRLSCAPSGRTFSVHAMGWYRPARGKGRELVAAISWDGGSTYYADSVKGRFTISRDNANNTVYLQMNSLKPEETAVYYCNKDLYYAYDYWGQGTQVTVSS”: “low polyreactivity”.

Regarding “QVQLVESGGGLVQAGGSLRLSCAPSGRTFYLNAMGWYRPAPGKERELVAAIRFSGGSTYYADSVKGRFTISRDNAKNTVYLQMNSLKPEDTAVYYCNAGPYLSLYPTVSEYGYWGQGTQVTVSS”, the “polyreactivity (PSR sort gate)” value was “low polyreactivity”.

Turning to “QVQLVESGGGLVQAGGSLRLSCAPSGRTIYHYAMGWYRQAPGKERELVAAITWSGGSTYYADSVKGRVTISRDNAKKTVYLQMNSLKPEDTAVYYWARYPARYGGYYDYDYWGQGTQVTVSS”, the “polyreactivity (PSR sort gate)” value is “high polyreactivity”. The same measure for “QVQLVESGGGLVQAGGSLRLSCAPSGSIFDVNAMGWYRQSPGKESELVAAISDSGGSTYYADSVKGRFTISRDNAKNTVYLQMNSLKPEDTAVYYCNADWSWYNYYEFDYWGQGTQVTVSS”: “low polyreactivity”; for “QVQLVESGGGLVQAGGSLRLSCAPSGSIFFPYAIGWYRQAPGKESELVAAISYSGTSTYYADSVKGRFTISRDNAKNTVYLQMNSLIPEDTAVYYCAAEVIGRYIEYYYWGQGTQVTVSS”: “high polyreactivity”. The same measure for “QVQLVESGGGLVQAGGSLRLSCAPSGSIFVYYAMGWYIQAPGKERELVAAITTSGGSTYYADSVKGRFTISRDNAKNTVYLQMNSLKPEDTAVYYCAAELLAWYWSFSVPCPYDYWGQGTQVTVSS”: “low polyreactivity”.
